Entries after “also recorded” stand apart in the source; their conditions may differ.
Experiments:
[1] = test system: TOV-21G ovarian cancer xenografts; assay: TOV-21G xenograft growth in nude mice, activin-A antagonists alone; assay type: in vivo, human; settings: sActRIIB 30 mg/kg SC 1x/week, activin-A antibody 30 mg/kg SC 2x/week, from day 12, vs PBS
Method: TOV-21G xenograft. 5×10^6 TOV-21G ovarian cancer cells were implanted subcutaneously into individual female athymic nu/nu mice (Harlan). Treatment was initiated at day 12 after tumor implantation, when the average tumor volume reached approximately 150 mm^3. The mice received PBS, sActRIIB (30 mg/kg, SC, 1×/week) or activin-A antibody (30 mg/kg, SC, 2×/week). In a separate chemotherapy combination experiment, the mice were treated with PBS, sActRIIB (10 mg/kg, SC, 1×/week), 5-FU (50 mg/kg, IP, 3 cycles, 4 daily injections per cycle) or sActRIIB and 5-FU combination at the same doses above. For all xenograft experiments, the tumor sizes were measured longitudinally by using an electronic caliper. Immediately prior to the 1st dose, the tumor-bearing mice were randomized to ensure even distribution in tumor sizes across different groups. Tumor volumes (mm^3) were calculated as tumor length (mm)×tumor width (mm)×tumor height (mm). Tumor weights were determined by necropsy.

[2] = TOV-21G xenograft, hu-sActRIIB-Fc alone or with 5-FU: body weight; assay type: in vivo, mouse; settings: TOV-21G tumor-bearing athymic nude mice
Method: In another experiment, athymic nude mice received TOV-21G xenografts in the abdominal flank. After 14 days, subcutaneous hu-sActRIIB-Fc was administered weekly alone or in combination with 5-FU.

[3] = sActRIIB single dose, withdrawal and re-administration in female Inhα KO mice: body weight; assay type: in vivo, mouse
Method: (§1) Eleven-to-fourteen-week-old female Inhα KO mice with body weight from 19.41 to 26.82 grams were subcutaneously (SC) injected with either 30 mg/kg sActRIIB or PBS. Age-matched WT littermate control mice were injected with PBS and served as baseline controls. The study ended by necropsy 2 weeks after injections. Two cohorts of mice were used in the study. Eleven-to-thirteen-week-old female Inhα KO mice with body weight from 17.7 to 27.4 grams were SC injected with either 30 mg/kg sAcLRIIB or PBS. Age-matched WT littermate control mice were injected with PBS and served as baseline controls. The withdrawal lasted for 8 weeks. At the end of the withdrawal, the sActRIIB treated mice were divided by balanced body weight into 2 groups (Group 3 and Group 4).
Group 2 and Group 3 were euthanized to examine the ovarian tumors. Group 4 received another dose of 30 mg/kg sActRIIB and the mice were euthanized together with the WT mice 4 weeks later (total 12 weeks). Mouse body weights were recorded once per week up to 12 weeks. For necropsy, mice were euthanized in a CO2 chamber. Normal ovaries in WT mice and ovarian tumors in Inhα KO mice were collected and weighed. All results were expressed as the mean±standard error of the mean (SEM). Statistical significance of difference between groups was analyzed using Student's 2-tailed t-test on MS Excel 5.0 software. […]

[4] = test system: ovarian and testicular tumors; assay: Light microscopy (H & E) of inh-KO ovaries and testes; assay type: in vivo, mouse
Source text: Testes and ovaries from inh-KO mice were fixed with Zinc-formalin. Tissue sections were subjected to H & E staining and then examined with a Nikon Eclipse 90i microscope.

[5] = test system: TOV-21G, BAEC, MRC-5, CCD-Lu, U937 and THP-1 cultures; assay: Real-time RT-PCR of VEGF, Ang-1 and βA in cell cultures treated with recombinant activin-A; assay type: cell-based; settings: sActRIIB added with recombinant activin-A
Source text: ID NO: 291), [NT] ID NO: 292), and TaqMan probe [NT] ID NO: 293).

[6] = test system: ovarian tumors in Inhα KO mice; assay: sActRIIB single dose, withdrawal and re-administration in female Inhα KO mice: ovarian tumor weight; assay type: in vivo, mouse
Method: as §1
Group 2 and Group 3 were euthanized to examine the ovarian tumors. Group 4 received another dose of 30 mg/kg sActRIIB and the mice were euthanized together with the WT mice 4 weeks later (total 12 weeks). Mouse body weights were recorded once per week up to 12 weeks. For necropsy, mice were euthanized in a CO2 chamber. Normal ovaries in WT mice and ovarian tumors in Inhα KO mice were collected and weighed. All results were expressed as the mean±standard error of the mean (SEM). Statistical significance of difference between groups was analyzed using Student's 2-tailed t-test on MS Excel 5.0 software. The Chi-Square test (GraphPad Software Inc, San Diego, CA) was used to examine the differences in animal survival time. Statistical significance between groups is represented by p<0.05 values.

TOV-21G cancer cells = assay: In vitro proliferation assay (IncuCyte live cell imaging); assay type: cell-based, human; settings: increasing concentrations
Method: In vitro growth rates of TOV-21G cancer cells were analyzed by using a real-time live cell imaging system (IncuCyte) following the manufacturer's recommended protocol.

activin-A = target: T1, activin-A (Mus musculus, UniProt Q04998); assay: Serum activin-A ELISA in inh-KO mice with established gonadal tumors; assay type: in vivo; settings: single injection 30 mg/kg SC
T1 construct: from tissue; host or cells: serum of inhibin-α knockout (inh-KO) and wild-type mice
T1 sequence (Q04998 309-424): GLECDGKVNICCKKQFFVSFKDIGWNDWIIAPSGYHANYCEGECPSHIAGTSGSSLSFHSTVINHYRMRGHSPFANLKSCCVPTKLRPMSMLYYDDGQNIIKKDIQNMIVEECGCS
Method: Inh-KO mice. 12-week-old female and 8-week-old male inh-KO mice with fully established ovarian or testicular tumors received a single injection of PBS or sActRIIB (30 mg/kg, SC). As a control, age-matched wild-type littermates received a single injection of PBS. Ovarian and testicular organ weights were determined by necropsy 14 days after the injection. All serum samples from ovarian cancer patients and healthy subjects were collected under informed consent and were purchased from Bioreclamation, Inc. The serum samples were diluted in buffer (DY995, R & D Systems) and pretreated overnight at 4° C. with 4 M urea (Sigma) to dissociate any protein bound to activin-A. The samples were then transferred to 96 well plates pre-coated with an activin-A monoclonal antibody. After 2 hr incubation at room temperature and a washing step (0.05% Tween 20 in DPBS), a biotin-labeled activin-A monoclonal antibody was added for 1 hr at room temperature. […] An acidic stopping solution (KPL) was added and the degree of enzymatic turnover of the substrate was determined by wavelength absorbance measurement at 450 nm. The absorbance measured is directly proportional to the concentration of activin-A present. A standard curve of absorbance versus activin-A concentration was used to determine the amount of Activin-A in the test sample. Serum activin-A levels in inh-KO mice were measured by using ELISA.

B1: sActRIIB: extracellular domain of human activin type-2B receptor fused to IgG2 Fc; full length SEQ ID NO: 21 (Table 9) (protein, listed as Homo sapiens)
chain: ETRWCIYYNANWELERTNQSGLERCEGEQDKRLHCYASWRNSSGTIELVKKGCWLDDFNCYDRQECVATEENPQVYFCCCEGNFCNERFTHLPEAGGPEVTYEPPPTAPTGGGGSVECPPCPAPPVAGPSVFLFPPKPKDTLMISRTPEVTCVVVDVSHEDPEVQFNWYVDGVEVHNAKTKPREEQFNSTFRVVSVLTVVHQDWLNGKEYKCKVSNKGLPAPIEKTISKTKGQPREPQVYTLPPSREEMTKNQVSLTCLVKGFYPSDIAVEWESNGQPENNYKTTPPMLDSDGSFFLYSKLTVDKSRWQQGNVFSCSVMHEALHNHYTQKSLSLSPGK
[1]
  growth of TOV-21G xenografts (tumor volume): significantly inhibited the growth
[2]
  body weight increase during the experiment: 26%
[3]; 30 mg/kg SC single dose
  body weight, first 4 weeks after single dose: sustained weight gain in Inhα KO mice that exceeded the level of WT littermate control
[3]; second single dose 30 mg/kg
  body weight after re-administration at week 8 (up to week 12): stimulated further weight gain
[4]; female inh-KO mice
  ovarian morphology by light microscopy: the ovaries were normal in size and contained many recognizable follicles, minimal tumor cell invasion and few hemorrhagic lesions
[4]; male inh-KO mice
  testicular morphology by light microscopy: the testes were normal in size and filled with seminiferous tubules, although the number of spermatogonia was less than normal and a few small areas still contained tumor cells
[5]
  induction of VEGF and Ang-1 mRNA by recombinant activin-A: prevented this induction of VEGF and Ang-1
  induction of βA expression by recombinant activin-A: blocked completely
[6]; 30 mg/kg SC
  ovarian tumor weight at 8 weeks after withdrawal from the initial single dose: grown in size similar to that of the PBS-treated Inhα KO mice
  ovarian tumor weight two weeks after a single dose: reduced to the WT control level
[6]; re-administration 30 mg/kg at week 8, 30 mg/kg
  ovarian tumor mass at week 12 (4 weeks after re-administration): effectively reduced the tumor mass; also recorded: effectively regressed the ovarian tumor mass to the size of the WT control group
TOV-21G cancer cells
  TOV-21G cell proliferation in vitro: no direct effect on TOV-21G cell proliferation in vitro
activin-A
  duration of activin-A-neutralizing effect: persisted throughout the 14-day study period
activin-A; within one day after administration
  serum activin-A levels: reduced the elevated activin-A in the inh-KO mice to normal control levels

Reference: patent publication US12383572B2, “Administration of an anti-activin-a compound to a subject” (AMGEN INC., priority 2013, dated 2025)
